# Assay results from patent US9212226B2, “Amino acid sequences directed against CXCR4 and other GPCRs and compounds comprising the same” (Ablynx N.V., priority 2008, dated 2015).
# Entries after “also recorded” stand apart in the source; their conditions may differ.
# T1: CXCR2 (Homo sapiens, UniProt P25025)
# T1 sequence (P25025 1-360): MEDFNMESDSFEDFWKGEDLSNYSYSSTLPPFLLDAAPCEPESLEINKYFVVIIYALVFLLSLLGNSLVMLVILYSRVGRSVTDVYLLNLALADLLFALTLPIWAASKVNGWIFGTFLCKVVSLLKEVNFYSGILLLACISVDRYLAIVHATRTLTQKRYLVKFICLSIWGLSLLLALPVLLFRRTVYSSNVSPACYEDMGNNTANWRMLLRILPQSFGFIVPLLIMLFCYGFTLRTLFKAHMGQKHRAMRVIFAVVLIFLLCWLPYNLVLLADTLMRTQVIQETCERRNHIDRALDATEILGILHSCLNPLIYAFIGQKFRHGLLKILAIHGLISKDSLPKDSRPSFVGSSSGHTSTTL
# B1: 238D2: Nanobody (VHH) raised against human CXCR4, SEQ ID NO: 238 (protein)
# VHH: EVQLVESGGGLVQTGGSLRLSCAASGFTFSSYAMSWVRQAPGKGLEWVSGIKSSGDSTRYAGSVKGRFTISRDNAKNMLYLQMYSLKPEDTAVYYCAKSRVSRTGLYTYDNRGQGTQVTVSS
# modifications: Nanobody, Nanobody constructs or fragments thereof
# B2: 238D4: Nanobody (VHH) raised against human CXCR4, SEQ ID NO: 239 (protein)
# VHH: EVQLMESGGGLVQAGGSLRLSCAASGRTFNNYAMGWFRRAPGKEREFVAAITRSGVRSGVSAIYGDSVKDRFTISRDNAKNTLYLQMNSLKPEDTAVYTCAASAIGSGALRRFEYDYSGQGTQVTVSS
# modifications: Nanobody, Nanobody constructs or fragments thereof
# Tests used:
# CXCR4 = CXCR4 (Homo sapiens, UniProt P61073); assay: Phage ELISA binding assay on CHO-CXCR4 versus CHO membranes; set-up: expressed in transfected cells; host or cells: CHO cells (membrane preparation); details: monoclonal phages, CHO-CXCR4 vs CHO membranes
# CXCR4, sequence (P61073 with tags, fused parts or gaps isoform P61073-2 limits assumed): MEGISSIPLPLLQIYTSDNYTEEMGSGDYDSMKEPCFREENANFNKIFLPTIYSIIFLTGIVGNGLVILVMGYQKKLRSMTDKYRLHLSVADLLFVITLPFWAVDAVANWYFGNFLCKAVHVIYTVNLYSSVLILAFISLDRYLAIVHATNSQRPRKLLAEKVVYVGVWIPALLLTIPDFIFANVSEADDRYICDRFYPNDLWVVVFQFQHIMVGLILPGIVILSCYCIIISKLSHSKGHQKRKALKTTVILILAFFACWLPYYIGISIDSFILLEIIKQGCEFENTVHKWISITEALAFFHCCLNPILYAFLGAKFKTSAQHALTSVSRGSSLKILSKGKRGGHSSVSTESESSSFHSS
# Procedure: FIG. 2. Results from Phage ELISA (as described in example 1.5).
# In order to determine binding specificity of the Nanobodies, 15 ul of the produced phage were tested in an Phage ELISA binding assay.
# In short, 2 ug in 100 ul PBS of membrane expressing either CXCR4 (CHO-CXCR4) or a non relevant GPCR(CHO) were coated directly on Maxisorp microtiter plates (Nunc) overnight at 4 C. Free binding sites were blocked using 4% Marvel in PBS for 1 h. Next, 15 ul of monoclonal phages was added in 100 ul 1% Marvel PBS for 2 hours. […] Binding specificity (binding to CHO-CXCR4) was determined based on OD values compared to controls (binding to CHO).
# β2-adrenoceptors = target: T2, β2-adrenoceptors (Homo sapiens, UniProt P07550); assay: CRE/β-galactosidase reporter gene selectivity screen, endogenous β2-adrenoceptors of HEK293T cells; assay type: cell-based; details: Nanobody 2.5 μM, salbutamol 100 nM, no forskolin
# T2 construct: (or mock for the investigation of endogenously expressed β2 adrenoceptors); endogenous in cells; host or cells: HEK293T cells (mock-transfected)
# Procedure: (§1) Data are shown as means±S.E.M. (n=2-3).
# (§2) HEK293T cells were maintained at 37° C. in a humidified 5% CO2, 95% air atmosphere in Dulbecco's modified Eagle's medium (DMEM) containing 2 mM L-glutamine, 50 IU/ml penicillin, 50 μg/ml streptomycin, and 10% (v/v) fetal calf serum. Jurkat cells were cultured in a humidified 5% CO2, 95% air atmosphere in a 1:1 mixture of Dulbecco's modified Eagle's medium (DMEM) and Ham's F12 medium containing 2 mM L-glutamine, 50 IU/ml penicillin, 50 μg/ml streptomycin, and 10% (v/v) fetal calf serum. […] [^125 I]-Labelling— Radiolabeling of Nanobodies with ^125I was performed using the Iodo-gen method (Pierce, Rockford, Ill.) according to the manufacturer's protocol. ^125I-labeled Nanobodies was separated from free iodine (>99%) using a Sephadex G-25 gel filtration column (Amersham Biosciences, Piscataway, N.J.). […] Competition Binding Assays— Membranes from HEK293T cells transiently expressing CXCR3 or CXCR4 were prepared 48 h after transfection as follows. Cells were washed and scraped from the cell culture dishes with ice-cold PBS containing 1 mm EDTA. The scraped cells were pelleted at 1500×g for 10 min at 4° C. […] The total protein was determined using a Bradford assay (Bio-Rad). […] Plates were counted by liquid scintillation. […] The accumulated inositol phosphates were isolated by anion exchange chromatography and counted by liquid scintillation. […]
# CXCR4 (N119A) = CXCR4 (N119A) (Homo sapiens, UniProt P61073, N119A); assay: Basal inositol phosphate accumulation in HEK293T cells expressing CXCR4 (N119A); assay type: cell-based; details: ligand-induced alteration of basal inositol phosphate accumulation
# CXCR4 (N119A), sequence (P61073 whole entry N119A): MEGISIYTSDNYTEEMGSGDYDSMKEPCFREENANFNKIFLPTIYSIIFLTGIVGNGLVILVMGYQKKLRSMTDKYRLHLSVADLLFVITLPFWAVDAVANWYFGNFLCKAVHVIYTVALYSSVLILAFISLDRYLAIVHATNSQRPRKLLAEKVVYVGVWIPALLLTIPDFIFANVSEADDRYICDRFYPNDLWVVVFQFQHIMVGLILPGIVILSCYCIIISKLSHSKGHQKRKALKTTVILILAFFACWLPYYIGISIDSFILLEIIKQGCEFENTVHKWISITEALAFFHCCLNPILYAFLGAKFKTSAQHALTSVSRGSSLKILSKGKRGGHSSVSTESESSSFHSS
# Procedure: HEK293T cells were maintained at 37° C. in a humidified 5% CO2, 95% air atmosphere in Dulbecco's modified Eagle's medium (DMEM) containing 2 mM L-glutamine, 50 IU/ml penicillin, 50 μg/ml streptomycin, and 10% (v/v) fetal calf serum. Jurkat cells were cultured in a humidified 5% CO2, 95% air atmosphere in a 1:1 mixture of Dulbecco's modified Eagle's medium (DMEM) and Ham's F12 medium containing 2 mM L-glutamine, 50 IU/ml penicillin, 50 μg/ml streptomycin, and 10% (v/v) fetal calf serum. […] [^125 I]-Labelling— Radiolabeling of Nanobodies with ^125I was performed using the Iodo-gen method (Pierce, Rockford, Ill.) according to the manufacturer's protocol. ^125I-labeled Nanobodies was separated from free iodine (>99%) using a Sephadex G-25 gel filtration column (Amersham Biosciences, Piscataway, N.J.). […] Competition Binding Assays— Membranes from HEK293T cells transiently expressing CXCR3 or CXCR4 were prepared 48 h after transfection as follows. Cells were washed and scraped from the cell culture dishes with ice-cold PBS containing 1 mm EDTA. The scraped cells were pelleted at 1500×g for 10 min at 4° C. The pellet was washed and then resuspended in ice-cold membrane buffer (15 mM Tris, pH 7.5, 1 mM EGTA, 0.3 mM EDTA, and 2 mM MgCl2). The cell suspension was homogenized by 10 strokes at 1200 rpm using a Teflon-glass homogenizer and rotor and further subjected to three freeze-thaw cycles using liquid nitrogen. Membranes were separated by centrifugation at 40,000 g for 25 min at 4° C. The membrane pellet was washed and resuspended in ice-cold Tris-sucrose buffer (20 mM Tris, pH 7.4, and 250 mM sucrose) and frozen in liquid nitrogen. The total protein was determined using a Bradford assay (Bio-Rad). Periplasmas (1:10) or ligands were pre-incubated with membranes in binding buffer (50 mM HEPES (pH 7.4), 1 mM CaCl2, 5 mM MgCl2, 100 mM NaCl, 0.5% bovine serum albumin) supplemented with 0.5% BSA for 1 h at 22° C. before the addition of [^125I]-CXCL12 (40 pM) or [^125I]-238D2 (3 nM) or [^125I]-238D4 (3 nM) for additional 2 h at 22° C. […] Membranes were then harvested over polyethylenimine (0.5%)-treated Whatman GF/C filter plates and washed three times with ice cold binding buffer containing 500 mM NaCl. Plates were counted by liquid scintillation. Inositol Phosphate Accumulation Assay— 24 hours post transfection with pcDNA3.1-CXCR4 and pcDNA1-HA-mG {alpha} qi5 (see Verzijl et al, 2008 supra), 250.000 cells were seeded into 24-wells plates and labelled overnight using inositol-free minimal essential medium supplemented with 1 μCi myo-[2-^3H]-inositol. The next day, the cells were washed once to remove not incorporated myo-[2-^3H]-inositol. […] In agonist experiments, the cells were directly stimulated with test compounds and LiCl (10 mM) in assay buffer for 2 h at 37° C. The stimulation was stopped by aspirating the stimulation medium and adding ice-cold 10 mM formic acid. The accumulated inositol phosphates were isolated by anion exchange chromatography and counted by liquid scintillation. CRE Reporter Gene Assay— HEK239T cells were transfected with pCRE/β-galactosidase (Chen W, Shields T S, Stork P J S, Cone R D (1995) Anal Biochem 226:349-354) and plasmids (pcDEF3 or pcDNA3.1) encoding the indicated receptors. 40,000 transfected cells per well were seeded into 96 well plates and grown in DMEM supplemented with 10% fetal calf serum. The medium was replaced 32 h after transfection by serum-free DMEM supplemented with 0.5% bovine serum albumin and ligands as indicated. […]
# CXCR2 = target: T1, CXCR2; assay: CRE/β-galactosidase reporter gene selectivity screen, CXCR2; assay type: cell-based; details: up to 2.5, forskolin 3 μM, agonist at 50-80% Emax
# Procedure: as §1, §2
# CCR5 = CCR5 (Homo sapiens, UniProt P51681); assay: CRE/β-galactosidase reporter gene selectivity screen, CCR5; assay type: cell-based; details: up to 2.5, forskolin 3 μM, agonist at 50-80% Emax
# CCR5, sequence (P51681 whole entry): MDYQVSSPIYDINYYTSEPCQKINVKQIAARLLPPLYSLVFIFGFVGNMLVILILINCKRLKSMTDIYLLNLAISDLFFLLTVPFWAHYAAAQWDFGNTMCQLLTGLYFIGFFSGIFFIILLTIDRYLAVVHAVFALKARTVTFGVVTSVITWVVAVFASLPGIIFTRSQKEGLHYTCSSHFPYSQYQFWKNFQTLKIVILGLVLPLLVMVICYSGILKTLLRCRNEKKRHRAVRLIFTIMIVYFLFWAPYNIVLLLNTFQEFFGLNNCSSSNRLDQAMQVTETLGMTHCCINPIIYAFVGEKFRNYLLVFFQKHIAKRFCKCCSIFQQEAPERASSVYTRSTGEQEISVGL
# Procedure: as §1, §2
Molecule,specificity toward CXCR4 expressing membrane compared to non-expressing membrane (CXCR4),effect on activation of endogenous β2-adrenoceptors by salbutamol (β2-adrenoceptors),functional profile at CXCR4 (N119A) (CXCR4 (N119A)),effect on agonist-induced response at CXCR2 (CXCR2),effect on agonist-induced response at CCR5 (CCR5)
B1,high specificity,do not act as agonists or antagonists; also recorded: did not inhibit,neutral antagonist; also recorded: Neither significant agonistic nor inverse antagonistic activity,do not act as agonists or antagonists; also recorded: do not alter,do not act as agonists or antagonists; also recorded: do not alter
B2,–,do not act as agonists or antagonists; also recorded: did not inhibit,inverse antagonists; also recorded: partial inverse agonists,do not act as agonists or antagonists; also recorded: do not alter,do not act as agonists or antagonists; also recorded: do not alter
